The values below come from patent publication US11578136B2, “Compositions and methods for treating cancer” (INNATE PHARMA, priority 2017, dated 2023).

The subject of assay [1] is CHO cells expressing cynomolgus (Macaca fascicularis) CD39. Nature of the assay: Antibody titration on CHO-cyCD39 by flow cytometry. It counts as binding. Conditions: result in words. Here is the method:
Antibody I-394 was tested in two repeated experiments for binding to CHO cells expressing human CD39, CHO cells expressing cynomolgus (Macaca fascicularis) CD39, CHO cells expressing murine CD39, and human Ramos lymphoma cells (ATCC™, reference CRL-1596). Cells were incubated with various concentration of unlabeled anti-CD39 antibody from 30 μg/ml to 5×10^−4 μg/ml, for 30 minutes at 4° C. After washes, cells were incubated with Goat anti-mouse H+L labeled secondary antibody for 30 min at 4° C.
For orientation: In flow cytometry, cells or beads pass a laser one at a time.

Assay [2] deals with T1, cell-membrane bound CD39 (Homo sapiens, UniProt P49961).
T1 sequence (P49961 1-510): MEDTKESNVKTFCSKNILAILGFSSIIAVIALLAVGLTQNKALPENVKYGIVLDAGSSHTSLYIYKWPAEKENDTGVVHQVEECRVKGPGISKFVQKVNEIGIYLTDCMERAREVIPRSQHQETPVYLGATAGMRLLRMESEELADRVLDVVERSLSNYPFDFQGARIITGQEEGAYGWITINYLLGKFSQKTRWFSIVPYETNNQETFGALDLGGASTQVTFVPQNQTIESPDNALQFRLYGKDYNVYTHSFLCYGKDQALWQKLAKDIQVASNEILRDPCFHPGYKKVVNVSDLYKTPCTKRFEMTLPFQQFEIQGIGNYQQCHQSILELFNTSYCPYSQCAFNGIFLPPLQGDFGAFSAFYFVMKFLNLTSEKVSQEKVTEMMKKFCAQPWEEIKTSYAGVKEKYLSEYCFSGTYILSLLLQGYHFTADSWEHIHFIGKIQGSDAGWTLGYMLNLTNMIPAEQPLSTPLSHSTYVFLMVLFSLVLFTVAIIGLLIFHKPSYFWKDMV
Nature of the assay: Inhibition of the enzymatic activity of cellular CD39 (cells not specified). It counts as cell-based. Here is the method:
The inhibition of the CD39 enzymatic activity in CD39-expressing cells by antibodies was evaluated using Cell Titer Glo™ (Promega, reference G7571) that allows assessment of ATP hydrolysis through use of a reagent that generates a luminescent signal proportional to the amount of ATP present. The assay was thus designed to permit assessment of the inhibition of ATP hydrolyzed by CD39 in the cell culture supernatant. Briefly, 5×10^4 Ramos human lymphoma cells, 5×10^3 human CD39-, cynomolgus CD39- and mouse CD39-expressing CHO cells, were incubated 1 hour at 37° C. with anti-CD39 antibodies from 30 μg/ml to […]. Cells were then incubated with 20 μM ATP for 1 additional hour at 37° C. Plates were centrifuged for 2 min at 400 g and 50 μl cell supernatant are transferred in a luminescence microplate (white wells). 50 μl CellTiter-Glo® Reagent (CTG) was added to the supernatant and emitted light was quantified after a 5 min incubation in the dark using a Enspire™ luminometer. Anti-CD39 antibody efficacy was determined by comparing emitted light in presence of antibody with ATP alone (maximal light emission) and ATP together with cells (minimal light emission).
The two antibodies that have been reported to inhibit the ATPase activity of CD39 in cellular assays (BY40 and BY12) were assessed to determine whether are able to inhibit the ATPase activity of recombinant soluble CD39 protein. […]

With “I-394: anti-CD39 antibody, VH SEQ ID NO: 6, VL SEQ ID NO: 7; human IgG1 Fc with L234A/L235E/G237A/A330S/P331S”, the “binding to cells expressing cynomolgus CD39 (CHO-cyCD39)” value in assay [1] is “bound”. In addition, the “potency and maximal inhibition of cellular CD39 compared to BY40 (FIG. 2A)” value in assay [2] (compared to BY40) is “greater potency and maximal inhibition”. For the same substance, the “inhibition of ATPase activity of CD39 protein in cells / cell-membrane bound CD39” value in assay [2] (result in words) was “inhibit”.
